Source: the Immune Epitope Database (IEDB)

Assays:
[1] = target: HLA-A*02:03; assay: IEDB peptide-MHC binding, purified MHC/direct/fluorescence; filed as Kd, often an IC50 or EC50 that approximates it; ≥ and ≤ were set here for values at or beyond the usual limits of such assays; details: source organism: Orthohantavirus andesense
[2] = target: HLA-A*02:11; assay: as above; details: source organism: Orthohantavirus andesense
[3] = target: HLA-A*02:12; assay: as above; details: source organism: Orthohantavirus andesense
[4] = target: HLA-A*02:16; assay: as above; details: source organism: Orthohantavirus andesense
[5] = target: HLA-A*02:19; assay: as above; details: source organism: Orthohantavirus andesense
[6] = target: HLA-A*03:01; assay: as above
[7] = target: HLA-A*24:03; assay: as above; details: source organism: Orthohantavirus andesense
[8] = target: HLA-A*29:02; assay: as above
[9] = target: HLA-A*68:02; assay: as above; details: source organism: Orthohantavirus andesense
[10] = target: HLA-B*40:01; assay: as above
[11] = target: HLA-A*02:01; assay: IEDB peptide-MHC binding, purified MHC/competitive/fluorescence; filed as Kd, often an IC50 or EC50 that approximates it; ≥ and ≤ were set here for values at or beyond the usual limits of such assays
[12] = target: HLA-A*26:01; assay: as above
[13] = target: HLA-A*69:01; assay: as above
[14] = target: HLA-B*15:01; assay: as above; details: source organism: Orthohantavirus andesense
[15] = target: HLA-B*15:17; assay: as above; details: source organism: Orthohantavirus andesense
[16] = target: HLA-B*15:42; assay: as above
[17] = target: HLA-B*18:01; assay: as above; details: source organism: Orthohantavirus andesense
[18] = target: HLA-B*27:03; assay: as above; details: source organism: Orthohantavirus andesense
[19] = target: HLA-B*39:01; assay: as above
[20] = target: HLA-B*45:06; assay: as above
[21] = target: HLA-B*46:01; assay: as above; details: source organism: Orthohantavirus andesense
[22] = target: HLA-B*51:01; assay: as above; details: source organism: Orthohantavirus andesense
[23] = target: HLA-B*57:01; assay: as above; details: source organism: Orthohantavirus andesense
[24] = target: HLA-B*83:01; assay: as above
[25] = target: HLA-A*02:01; assay: IEDB peptide-MHC binding, purified MHC/competitive/fluorescence; ≥ and ≤ were set here for values at or beyond the usual limits of such assays; details: source organism: Vaccinia virus
[26] = target: HLA-A*03:01; assay: as above; details: source organism: Vaccinia virus
[27] = target: HLA-A*11:01; assay: as above; details: source organism: Vaccinia virus
[28] = target: HLA-A*01:01; assay: IEDB peptide-MHC binding, purified MHC/direct/fluorescence; filed as Kd, often an IC50 or EC50 that approximates it; ≥ and ≤ were set here for values at or beyond the usual limits of such assays
[29] = target: HLA-A*11:01; assay: as above; details: source organism: Cowpox virus
[30] = target: HLA-A*31:01; assay: as above; details: source organism: Cowpox virus
[31] = target: HLA-B*07:02; assay: as above; details: source organism: Cowpox virus
[32] = target: HLA-B*15:01; assay: as above; details: source organism: Cowpox virus
[33] = target: HLA-B*15:17; assay: as above; details: source organism: Cowpox virus
[34] = target: HLA-B*18:01; assay: as above; details: source organism: Cowpox virus
[35] = target: HLA-B*27:05; assay: as above; details: source organism: Cowpox virus
[36] = target: HLA-B*46:01; assay: as above; details: source organism: Cowpox virus
[37] = target: HLA-B*48:01; assay: as above; details: source organism: Cowpox virus
[38] = target: HLA-B*51:01; assay: as above; details: source organism: Cowpox virus
[39] = target: HLA-B*57:01; assay: as above; details: source organism: Cowpox virus
[40] = target: HLA-B*58:01; assay: as above; details: source organism: Cowpox virus
[41] = target: HLA-A*02:03; assay: IEDB peptide-MHC binding, purified MHC/competitive/fluorescence; filed as Kd, often an IC50 or EC50 that approximates it; ≥ and ≤ were set here for values at or beyond the usual limits of such assays; details: source organism: Vaccinia virus Copenhagen
[42] = target: HLA-A*02:06; assay: as above; details: source organism: Vaccinia virus Copenhagen
[43] = target: HLA-B*08:01; assay: as above; details: source organism: Vaccinia virus Copenhagen
[44] = source organism: Orthohantavirus andesense
[45] = source organism: Vaccinia virus Copenhagen

LEEDIQHFL
Kd [1]: ≥ 20 µM
Kd [2]: ≥ 20 µM
Kd [3]: ≥ 20 µM
Kd [4]: ≥ 20 µM
Kd [5]: ≥ 20 µM
Kd [6, 44]: ≥ 20 µM
Kd [7]: ≥ 20 µM
Kd [8, 44]: ≥ 20 µM
Kd [9]: ≥ 20 µM
Kd [10, 44]: 0.0002 µM
Kd [11, 44]: ≥ 20 µM
Kd [12, 44]: ≥ 20 µM
Kd [13, 44]: ≥ 20 µM
Kd [14]: ≥ 20 µM
Kd [15]: ≥ 20 µM
Kd [16, 44]: ≥ 5 µM
Kd [17]: ≥ 20 µM
Kd [18]: ≥ 20 µM
Kd [19, 44]: ≥ 20 µM
Kd [20, 44]: ≥ 5 µM
Kd [21]: ≥ 20 µM
Kd [22]: ≥ 20 µM
Kd [23]: ≥ 20 µM
Kd [24, 44]: ≥ 5 µM

LLQKYPPPR
IC50 [25]: ≥ 101 µM
IC50 [26]: 4.03 µM
IC50 [27]: 7.75 µM

RTNGASYAY
Kd ([28]; source organism: Mycobacterium tuberculosis): 0.199 µM
Kd ([8]; source organism: Mycobacterium tuberculosis str. Haarlem): ≤ 0.001 µM

SIATNLEYK
IC50 [26]: 3.98 µM
IC50 [27]: 0.427 µM

YPPPRYITV
Kd ([28]; source organism: Cowpox virus): ≥ 20 µM
Kd ([6]; source organism: Cowpox virus): ≥ 20 µM
Kd [29]: ≥ 20 µM
Kd [30]: ≥ 20 µM
Kd [31]: 0.113 µM
Kd [32]: ≥ 20 µM
Kd [33]: ≥ 20 µM
Kd [34]: ≥ 20 µM
Kd [35]: ≥ 20 µM
Kd ([10]; source organism: Cowpox virus): ≥ 20 µM
Kd [36]: ≥ 20 µM
Kd [37]: ≥ 20 µM
Kd [38]: 0.179 µM
Kd [39]: ≥ 20 µM
Kd [40]: ≥ 20 µM
Kd [11, 45]: 0.106 µM
Kd [41]: 0.239 µM
Kd [42]: 0.0114 µM
Kd [12, 45]: ≥ 20 µM
Kd [13, 45]: 0.0681 µM
Kd [43]: 0.543 µM
Kd [16, 45]: ≥ 5 µM
Kd [19, 45]: 3.58 µM
Kd [20, 45]: ≥ 5 µM
Kd [24, 45]: ≥ 5 µM
